This assay deals with CD40 on APCs (CD2-depleted human PBMC) (human) (UniProt P25942). Kind of assay: cell-based or functional assay.

These results are taken from patent publication US6759239.

UniProt P25942, sequence (P25942 21-277): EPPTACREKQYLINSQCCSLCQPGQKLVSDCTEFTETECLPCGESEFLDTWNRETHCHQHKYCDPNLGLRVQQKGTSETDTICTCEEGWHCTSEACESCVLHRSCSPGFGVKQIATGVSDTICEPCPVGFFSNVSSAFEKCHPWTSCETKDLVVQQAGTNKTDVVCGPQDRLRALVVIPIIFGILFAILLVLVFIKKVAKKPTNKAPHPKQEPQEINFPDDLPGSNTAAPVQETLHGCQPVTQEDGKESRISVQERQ

Substance “CD40L constitutively expressed on the D1.1 Jurkat T cell line (from UniProt P29965 1-261) (ligand)” registered a % Positive APCs for CD40 after 24 h with D1.1 cells (APC alone: 99(203)) of 99%, a % Positive APCs for CD54 after 24 h with D1.1 cells (APC alone: 60(350)) of 85%, a % Positive APCs for CD58 after 24 h with D1.1 cells (APC alone: 42(374)) of 70% and a % Positive APCs for CD80 after 24 h with D1.1 cells (APC alone: 17(90)) of 41%. This substance also registered a % Positive APCs for CD86 after 24 h with D1.1 cells (APC alone: 35(318)) of 49%. For the setting “scale: MFI”, this substance came in with an MFI of CD40 on APCs after 24 h with D1.1 cells (APC alone: 99(203)) of 312, an MFI of CD54 on APCs after 24 h with D1.1 cells (APC alone: 60(350)) of 358, an MFI of CD58 on APCs after 24 h with D1.1 cells (APC alone: 42(374)) of 380 and an MFI of CD80 on APCs after 24 h with D1.1 cells (APC alone: 17(90)) of 141. Also, where the note is “scale: MFI”, the MFI of CD86 on APCs after 24 h with D1.1 cells (APC alone: 35(318)) amounted to 327.

On to mAb CD40 G28-5 (antibody), for which the % Positive APCs for CD40 after 48 h with CD40 mAb on CD32+ L cells plus IL-4 (APC alone: 99(231)) was determined as 99%, the % Positive APCs for CD54 after 48 h with CD40 mAb on CD32+ L cells plus IL-4 (APC alone: 65(283)) is 97%, the % Positive APCs for CD80 after 48 h with CD40 mAb on CD32+ L cells plus IL-4 (APC alone: 16(78)) was determined as 31% and the % Positive APCs for CD86 after 48 h with CD40 mAb on CD32+ L cells plus IL-4 (APC alone: 30(310)) was determined as 63%. In addition, under “scale: MFI”, the MFI of CD40 on APCs after 48 h with CD40 mAb on CD32+ L cells plus IL-4 (APC alone: 99(231)) turned out to be 430, the MFI of CD54 on APCs after 48 h with CD40 mAb on CD32+ L cells plus IL-4 (APC alone: 65(283)) was found to be 443, the MFI of CD58 on APCs after 48 h with CD40 mAb on CD32+ L cells plus IL-4 (APC alone: 40(315)) turned out to be 458 and the MFI of CD80 on APCs after 48 h with CD40 mAb on CD32+ L cells plus IL-4 (APC alone: 16(78)) amounted to 109. Besides, the MFI of CD86 on APCs after 48 h with CD40 mAb on CD32+ L cells plus IL-4 (APC alone: 30(310)) (scale: MFI) is 464.
